Source: patent publication US20060281899A1, “Mutants of biotin binding protein” (priority 2002, published 2006)

Experiments:
[1] = Differential scanning calorimetry of avidin and AVR4/5 forms; assay type: physicochemical
Experimental: The thermodynamics of the heat-induced unfolding of the proteins were studied using DSC. The transition midpoint of heat-induced denaturation (Tm) of the avidin and different AVR4/5 forms was studied using a Nano II differential scanning calorimeter (Calorimetric Sciences Corporation, Provo, Utah, USA). The reference cell was filled with buffer whereas the sample cell was filled with proteins dissolved in 50 mM sodium phosphate buffer, pH 7.0 containing 100 mM NaCl. Avidin and AVR4/5(C124S) were also analyzed in 50 mM Na-acetate pH 4.0 containing 100 mM NaCl. Furthermore, AVR4/5 was analyzed in the presence of 2-mercaptoethanol (0.4% v/v). The samples (1.6-9.6 μM) were analyzed both in the absence and presence of a three fold molar excess of biotin/subunit. All samples were degassed before being loaded into the DSC. The thermograms were recorded as a function of temperature; between 25 and 130° C. at a rate of 55.6° C./h (Gonzalez, M., Argarana, C. E. & Fidelio, G. D. (1999) Biomol. Eng. 16, 67-72; Nordlund, H. R., Laitinen, O. H., Uotila, S. T., Nyholm, T., Hytönen, V. P., Slotte, J. P. & Kulomaa, M. S. (2003) J. Biol. Chem. 278, 2479-2483). Data was analyzed using Microcal Origin 6.0 and Cpcalc 2.1 (Applied Thermodynamics, Hunt Valley, Md.). The change in heat capacity upon unfolding (ΔCp) was measured for avidin and AVR4/5(C124S) using DSC data from measurements in pH 4.0 and 7.0. ΔCp was then obtained from the slope of ΔH vs. Tm (Liu, Y. & Sturtevant, J. M. (1996) Biochemistry 35, 3059-3062).

[2] = Microparticle analysis, BF523-biotin binding of protein-coated particles before and after 95° C.; assay type: physicochemical
Experimental: Before the analysis, 3.22 μm microparticles with COOH-group/0.852 nm2 (Bangs laboratories, Fishers, Ind., USA) were covalently coated with biotin-binding proteins. Microparticles (1*108 pcs) were washed twice with H20 by sequential centrifuging (5000 g; 3 min) and aspiration, and resuspended in 200 μl PB buffer (50 mM NaH2PO4-HCl, pH 3.0). A solution of biotin binding protein (50 μl, 1 mg/ml or 3 mg/ml, 50 mM Na-acetate pH 4.0) was added while vortexing. The suspension was incubated for 1 h (500 rpm; 23° C.). Particles were washed with PB and with MES buffer (50 mM, pH 5.5) and suspended in MES buffer (200 μl). […] After the last wash particles were suspended in 100 μl volume and concentration of particles was determined with Multisizer 3 Coulter Counter (Beckman Coulter, Fullerton, Calif., USA). […]
Microparticles (5*106 pcs) were suspended in 900 μl of assay buffer and aliquoted in […] PCR-tubes (i-v; 180 μl/aliquot). […] The samples were measured with ArcDia TPX PlateReader (ArcDia Ltd.) (Soini, E., Meltola, N. J., Soini, A. E., Soukka, J., Soini, J. T. & Hanninen, P. E. (2000) Biochem. Soc. Trans. 28, 70-74). […]
The fluorescence emission efficiencies of the BF523-biotin conjugate (200 nM) was determined before and after the incubation (30 min) at 95° C. […]

B1: AVR4/5: Recombinant chicken avidin-related protein 4/5 (AVR4 and AVR5 identical in coding sequence) (protein, UniProt P56734 25-150, looked up)
Avidin-related protein 4/5: ARKCSLTGKWTNNLGSIMTIRAVNSRGEFTGTYLTAVADNPGNITLSPLLGIQHKRASQPTFGFTVHWNFSESTTVFTGQCFIDRNGKEVLKTMWLLRSSVNDISYDWKATRVGYNNFTRLCTVEE
DSC Tm(−biotin) ([1]; 50 mM sodium phosphate pH 7.0, 100 mM NaCl): 107.4 ± 0.3 °C | ΔTm ([1]; change in Tm upon addition of a three-fold molar excess of biotin): 17.3 °C | ΔH of unfolding ([1]; sample without biotin): 194 ± 33.5 kcal/mol | DSC Tm (+biotin) ([1]; three-fold molar excess of biotin, pH 7.0): 124.7 ± 0.3 °C | original signal after heat treatment of coated particles ([2]; 30 minutes at 95° C., BF523-biotin added after treatment (iv)): 93% | capacity of coated particles ([2]; BF523-biotin binding, no heat treatment (i, iii)): remarkably higher
